Reference: patent US20150239980A1 (NEOTOPE BOSCIENCES, published 2015)

T1: human MCAM (melanoma cell adhesion molecule) expressed on transfected CHO cells (human, UniProt P43121 24-646)
T1 construct: also called hMCAM; CD146
T1 chain: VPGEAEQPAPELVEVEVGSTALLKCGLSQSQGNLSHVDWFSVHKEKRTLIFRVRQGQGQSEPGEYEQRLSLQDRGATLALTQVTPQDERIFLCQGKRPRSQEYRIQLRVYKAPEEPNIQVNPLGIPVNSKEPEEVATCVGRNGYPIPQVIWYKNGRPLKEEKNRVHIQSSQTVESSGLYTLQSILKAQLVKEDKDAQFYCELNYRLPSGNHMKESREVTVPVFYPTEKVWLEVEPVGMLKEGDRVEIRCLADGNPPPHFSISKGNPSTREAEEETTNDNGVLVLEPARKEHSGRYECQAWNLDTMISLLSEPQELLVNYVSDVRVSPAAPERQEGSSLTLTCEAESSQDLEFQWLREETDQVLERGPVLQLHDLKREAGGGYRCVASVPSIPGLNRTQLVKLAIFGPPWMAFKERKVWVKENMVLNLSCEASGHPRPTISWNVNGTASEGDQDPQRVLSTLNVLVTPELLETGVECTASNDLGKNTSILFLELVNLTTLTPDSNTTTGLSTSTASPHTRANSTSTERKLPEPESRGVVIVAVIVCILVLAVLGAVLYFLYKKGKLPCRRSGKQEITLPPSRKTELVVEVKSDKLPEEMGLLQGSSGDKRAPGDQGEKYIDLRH

T2: recombinant hMCAM-His (human, UniProt P43121 24-559)
T2 construct: not shown: His tag
T2 chain: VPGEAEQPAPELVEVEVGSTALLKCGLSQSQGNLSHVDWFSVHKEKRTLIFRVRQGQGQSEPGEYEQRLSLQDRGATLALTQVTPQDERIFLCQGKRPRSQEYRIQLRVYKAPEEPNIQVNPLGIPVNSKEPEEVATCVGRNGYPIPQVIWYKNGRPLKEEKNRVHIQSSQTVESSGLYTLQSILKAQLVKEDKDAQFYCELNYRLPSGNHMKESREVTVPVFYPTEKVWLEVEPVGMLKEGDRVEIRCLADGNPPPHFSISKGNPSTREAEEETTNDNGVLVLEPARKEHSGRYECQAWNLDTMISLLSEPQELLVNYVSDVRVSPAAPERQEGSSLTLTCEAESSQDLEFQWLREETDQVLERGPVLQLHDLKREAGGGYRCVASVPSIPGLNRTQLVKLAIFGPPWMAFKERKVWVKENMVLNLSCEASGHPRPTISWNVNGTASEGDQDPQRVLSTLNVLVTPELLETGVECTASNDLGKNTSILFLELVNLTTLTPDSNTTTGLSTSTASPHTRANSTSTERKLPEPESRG

B1: h2107_VH1 + h2107_VL2 (antibody, human IgG1, V domains shown)
VH: QVTLKESGPVLVKPTETLTLTCTVSGFSLTSNGVSWVRQPPGKALEWIAAISSGGSTYYNSAFKSRLTISRDTSKSQVVLTMTNMDPVDTATYYCARHRPFYFDYWGQGTLVTVSS
VL: DIQMTQSPSSLSASVGDRVTITCKGSQNIYKSLAWFQLKPGKVPKLLIYDANSLQTGIPSRFSGSGSGTDFTLTISSLQPEDVATYYCQQYYSGYTFGGGTKVEIK
notes: also called VH1VL2
B2: h2107_VH2 + h2107_VL2 (antibody, human IgG1, V domains shown)
VH: QVTLKESGPVLVKPTETLTLTCTVSGFSLTSNGVSWVRQPPGKALEWIAAISSGGSTYYNSAFKSRLSISRDTSKSQVVLTMTNMDPVDTATYYCARHRPFYFDYWGQGTLVTVSS
VL: DIQMTQSPSSLSASVGDRVTITCKGSQNIYKSLAWFQLKPGKVPKLLIYDANSLQTGIPSRFSGSGSGTDFTLTISSLQPEDVATYYCQQYYSGYTFGGGTKVEIK
notes: also called h2107VH2VL2; VH2VL2

Assays:
[1] = biological target: T1, human MCAM (melanoma cell adhesion …); assay: laminin/FACS on hMCAM CHO cells, competitor laminin 411; Expt#1; vs rodent 2107
Method in brief: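 Laminin binding measured as AF650 anti-laminin fluorescence by FACS, post-wash, 30-45 min incubation.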

recombinant hMCAM-His [2] = biological target: T2, recombinant hMCAM-His; assay: ForteBio Octet Red, hMCAM-His analyte; Expt. #1; vs rodent 2107
Method in brief: (§1)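 Using a 1:1 fitting model, affinities were calculated from sensorgrams of hMCAMHis analyte at several concentrations binding Fc-captured humanized antibody.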

recombinant hMCAM-His [3] = biological target: T2, recombinant hMCAM-His; assay: competitive ELISA on hMCAM-His, competitor biotinylated rodent or chimeric 2107; vs rodent 2107
Method in brief: (§2)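 Plates coated with recombinant hMCAM-His and casein-blocked; biotinylated rodent or chimeric antibody at subsaturating level competed by 3× serial concentrations of unlabeled humanized, rodent or chimeric antibody. Bound biotinylated antibody detected with streptavidin-HRP/TMB at OD450; competitor IC50 fitted.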

recombinant hMCAM-His [4] = biological target: T2, recombinant hMCAM-His; assay: ForteBio Octet Red, hMCAM-His analyte; Forte column 1; vs rodent 2107
Method in brief: as §1

recombinant hMCAM-His [5] = biological target: T2, recombinant hMCAM-His; assay: summary of ForteBio and competitive ELISA on hMCAM-His; vs rodent 2107
Experimental: (§3) ELISA plates were coated with recombinant hMCAM-His, and blocked with casein buffer to prevent non-specific binding. Biotinylated rodent or chimeric antibody was added at a subsaturating concentration, in the presence or absence of 3× increasing concentrations of unlabeled competitor (humanized antibody, rodent, or chimeric). After washing to remove unbound antibody, streptavidin HRP was added to allow detection of the biotinylated antibody. The ELISA was developed with TMB substrate and the OD450 was measured. The IC50 of the unlabeled competitor was determined using the GraphPad Prism5 software.
(§4) The affinities were measured using the ForteBio Octet Red. Anti-human Fc sensors were used to capture the humanized antibodies, and several concentrations of hMCAMHis analyte were used to determine the affinity using a 1:1 fitting model.

recombinant hMCAM-His [6] = biological target: T2, recombinant hMCAM-His; assay: ForteBio Octet Red, hMCAM-His analyte; Expt. #2; vs rodent 2107
Experimental: as §4

[7] = biological target: T1, human MCAM (melanoma cell adhesion …); assay: summary of laminin blocking assay on hMCAM CHO cells, competitor laminin 411; vs rodent 2107
Experimental: (§5) Following incubation for 30-45 minutes, the cells were washed and anti-laminin conjugated to AF650 (NovusBio) was added to detect the bound laminin. The cells were run on a flow cytometer to measure the laminin binding signal.

recombinant hMCAM-His [8] = biological target: T2, recombinant hMCAM-His; assay: competitive ELISA on hMCAM-His, competitor biotinylated rodent or chimeric 2107; Expt. #2; vs rodent 2107
Experimental: as §3

recombinant hMCAM-His [9] = biological target: T2, recombinant hMCAM-His; assay: competitive ELISA on hMCAM-His, competitor biotinylated rodent or chimeric 2107; Expt. #1; vs rodent 2107
Method in brief: as §2

[10] = biological target: T1, human MCAM (melanoma cell adhesion …); assay: laminin/FACS on hMCAM CHO cells, competitor laminin 411; Expt#2; reference row with 1.0 is chimeric 2107
Experimental: as §5

recombinant hMCAM-His [11] = biological target: T2, recombinant hMCAM-His; assay: ForteBio Octet Red, hMCAM-His analyte; Forte column 2; vs rodent 2107
Method in brief: as §1

Row | Binder | fold over rodent (blocking, laminin/FACS) [1] [fold] | fold over rodent (Forte affinity) (recombinant hMCAM-His [2]) [fold] | fold over rodent (competitive ELISA) (recombinant hMCAM-His [3]) [fold] | fold over rodent (Forte affinity) (recombinant hMCAM-His [4]) [fold] | fold reduction in affinity compared to the rodent (recombinant hMCAM-His [5]) [fold] | fold over rodent (Forte affinity) (recombinant hMCAM-His [6]) [fold] | fold reduction in potency compared to the rodent [7] [fold] | fold over rodent (competitive ELISA) (recombinant hMCAM-His [8]) [fold] | fold over rodent (competitive ELISA) (recombinant hMCAM-His [9]) [fold] | fold over rodent (blocking, laminin/FACS) [10] [fold] | fold over rodent (Forte affinity) (recombinant hMCAM-His [11]) [fold]
1 | B1 | 1.9 | 2.37 | 1.4 | 3 | < 3 | 3.4 | < 3 | 1.32 | 1.29 | 1.4 | 2.8
2 | B2 | 1.4 | 2.54 | 1.3 | 2.7 | < 3 | 3.58 | < 3 | 1.48 | 1.32 | 1.5 | 2.9
